Data: IntAct's records for PubMed 29997244

B1: DnaJ homolog subfamily C member 5 (Homo sapiens), Q9H3Z4 (parent)
chain: MADQRQRSLSTSGESLYHVLGLDKNATSDDIKKSYRKLALKYHPDKNPDNPEAADKFKEINNAHAILTDATKRNIYDKYGSLGLYVAEQFGEENVNTYFVLSSWWAKALFVFCGLLTCCYCCCCLCCCFNCCCGKCKPKAPEGEETEFYVSPEDLEAQLQSDEREATDTPIVIQPASATETTQLTADSHPSYHTDGFN
partner: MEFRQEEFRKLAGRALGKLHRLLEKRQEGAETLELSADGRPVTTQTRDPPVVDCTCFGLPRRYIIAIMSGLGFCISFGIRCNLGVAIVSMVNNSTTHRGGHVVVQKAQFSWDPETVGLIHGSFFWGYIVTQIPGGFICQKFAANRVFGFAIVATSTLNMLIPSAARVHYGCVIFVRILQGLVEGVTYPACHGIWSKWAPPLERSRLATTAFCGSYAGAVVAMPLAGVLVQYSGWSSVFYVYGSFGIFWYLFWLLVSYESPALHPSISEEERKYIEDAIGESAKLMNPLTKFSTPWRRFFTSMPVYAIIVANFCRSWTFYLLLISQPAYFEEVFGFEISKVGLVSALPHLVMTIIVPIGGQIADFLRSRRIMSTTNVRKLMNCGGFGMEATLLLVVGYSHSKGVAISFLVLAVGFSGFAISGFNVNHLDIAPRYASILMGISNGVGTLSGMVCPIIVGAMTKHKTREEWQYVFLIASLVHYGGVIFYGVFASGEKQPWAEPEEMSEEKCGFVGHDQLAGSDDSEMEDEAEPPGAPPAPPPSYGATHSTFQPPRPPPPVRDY
B2: DnaJ homolog subfamily C member 5 (Homo sapiens), Q9H3Z4 (parent)
chain: B1 chain
partner: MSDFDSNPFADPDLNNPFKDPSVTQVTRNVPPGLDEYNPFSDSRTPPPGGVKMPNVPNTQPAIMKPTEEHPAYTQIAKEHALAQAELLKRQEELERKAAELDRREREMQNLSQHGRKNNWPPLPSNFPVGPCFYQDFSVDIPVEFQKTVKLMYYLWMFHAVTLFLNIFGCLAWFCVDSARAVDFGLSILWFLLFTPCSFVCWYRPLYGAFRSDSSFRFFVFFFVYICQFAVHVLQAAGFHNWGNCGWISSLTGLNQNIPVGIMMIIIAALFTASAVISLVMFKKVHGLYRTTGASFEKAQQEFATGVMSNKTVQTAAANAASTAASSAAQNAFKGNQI
B3: DnaJ homolog subfamily C member 5 (Homo sapiens), Q9H3Z4 (parent)
chain: B1 chain
partner: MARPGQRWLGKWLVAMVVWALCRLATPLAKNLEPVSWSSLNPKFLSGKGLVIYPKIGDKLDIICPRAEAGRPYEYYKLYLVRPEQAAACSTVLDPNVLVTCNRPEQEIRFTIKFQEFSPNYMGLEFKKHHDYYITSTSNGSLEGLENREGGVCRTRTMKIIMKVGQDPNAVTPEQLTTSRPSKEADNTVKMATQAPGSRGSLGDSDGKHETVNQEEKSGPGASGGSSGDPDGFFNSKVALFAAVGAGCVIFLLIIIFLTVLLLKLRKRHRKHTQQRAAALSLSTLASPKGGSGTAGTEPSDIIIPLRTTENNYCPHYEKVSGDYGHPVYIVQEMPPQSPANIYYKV
B4: DnaJ homolog subfamily C member 5 (Homo sapiens), Q9H3Z4 (parent)
chain: B1 chain
partner: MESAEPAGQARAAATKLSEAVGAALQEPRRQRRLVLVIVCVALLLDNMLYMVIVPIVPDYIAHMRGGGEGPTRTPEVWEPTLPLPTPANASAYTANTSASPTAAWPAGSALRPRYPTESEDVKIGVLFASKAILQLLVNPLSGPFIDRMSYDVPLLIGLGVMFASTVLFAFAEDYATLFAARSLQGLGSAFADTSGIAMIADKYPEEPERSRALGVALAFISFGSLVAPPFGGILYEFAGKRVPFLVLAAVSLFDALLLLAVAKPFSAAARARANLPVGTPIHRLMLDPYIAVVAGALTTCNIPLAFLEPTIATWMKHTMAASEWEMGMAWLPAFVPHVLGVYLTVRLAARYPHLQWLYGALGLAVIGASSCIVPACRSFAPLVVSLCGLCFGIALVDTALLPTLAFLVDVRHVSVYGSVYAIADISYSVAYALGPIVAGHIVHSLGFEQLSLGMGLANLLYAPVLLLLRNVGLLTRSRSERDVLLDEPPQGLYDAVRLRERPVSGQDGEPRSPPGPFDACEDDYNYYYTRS
B5: DnaJ homolog subfamily C member 5 (Homo sapiens), Q9H3Z4 (parent)
chain: B1 chain
partner: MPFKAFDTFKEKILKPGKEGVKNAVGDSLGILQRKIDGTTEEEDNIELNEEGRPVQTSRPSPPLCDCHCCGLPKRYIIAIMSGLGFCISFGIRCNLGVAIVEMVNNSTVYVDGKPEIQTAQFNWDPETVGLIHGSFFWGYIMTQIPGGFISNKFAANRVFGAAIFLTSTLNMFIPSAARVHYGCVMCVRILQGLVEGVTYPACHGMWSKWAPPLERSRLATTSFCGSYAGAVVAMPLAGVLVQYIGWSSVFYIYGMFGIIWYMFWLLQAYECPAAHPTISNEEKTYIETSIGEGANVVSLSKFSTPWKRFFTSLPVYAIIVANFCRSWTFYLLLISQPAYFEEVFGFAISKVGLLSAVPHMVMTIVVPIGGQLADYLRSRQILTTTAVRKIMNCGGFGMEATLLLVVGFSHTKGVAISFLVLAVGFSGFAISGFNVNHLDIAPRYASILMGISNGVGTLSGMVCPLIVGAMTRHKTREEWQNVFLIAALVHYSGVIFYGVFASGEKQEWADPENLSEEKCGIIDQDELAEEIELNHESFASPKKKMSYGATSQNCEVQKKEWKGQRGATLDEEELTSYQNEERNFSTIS
B6: DnaJ homolog subfamily C member 5 (Homo sapiens), Q9H3Z4 (parent)
chain: B1 chain
partner: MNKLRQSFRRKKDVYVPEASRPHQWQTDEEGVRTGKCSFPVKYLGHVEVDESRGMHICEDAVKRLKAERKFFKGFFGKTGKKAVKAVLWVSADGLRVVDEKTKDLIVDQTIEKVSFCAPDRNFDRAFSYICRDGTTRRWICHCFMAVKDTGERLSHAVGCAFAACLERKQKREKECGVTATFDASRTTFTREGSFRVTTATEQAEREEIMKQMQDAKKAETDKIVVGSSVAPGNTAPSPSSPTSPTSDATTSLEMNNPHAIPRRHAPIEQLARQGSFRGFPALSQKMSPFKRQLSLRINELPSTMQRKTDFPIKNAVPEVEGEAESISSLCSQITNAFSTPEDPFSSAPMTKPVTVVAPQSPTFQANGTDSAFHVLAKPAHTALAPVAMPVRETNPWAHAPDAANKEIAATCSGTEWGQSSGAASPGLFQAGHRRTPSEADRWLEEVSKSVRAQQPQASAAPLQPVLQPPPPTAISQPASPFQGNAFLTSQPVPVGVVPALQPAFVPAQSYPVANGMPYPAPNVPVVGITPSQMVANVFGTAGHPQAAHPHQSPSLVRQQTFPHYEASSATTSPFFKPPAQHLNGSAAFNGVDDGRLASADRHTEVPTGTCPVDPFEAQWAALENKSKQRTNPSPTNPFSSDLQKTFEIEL
B7: DnaJ homolog subfamily C member 5 (Homo sapiens), Q9H3Z4 (parent)
chain: B1 chain
partner: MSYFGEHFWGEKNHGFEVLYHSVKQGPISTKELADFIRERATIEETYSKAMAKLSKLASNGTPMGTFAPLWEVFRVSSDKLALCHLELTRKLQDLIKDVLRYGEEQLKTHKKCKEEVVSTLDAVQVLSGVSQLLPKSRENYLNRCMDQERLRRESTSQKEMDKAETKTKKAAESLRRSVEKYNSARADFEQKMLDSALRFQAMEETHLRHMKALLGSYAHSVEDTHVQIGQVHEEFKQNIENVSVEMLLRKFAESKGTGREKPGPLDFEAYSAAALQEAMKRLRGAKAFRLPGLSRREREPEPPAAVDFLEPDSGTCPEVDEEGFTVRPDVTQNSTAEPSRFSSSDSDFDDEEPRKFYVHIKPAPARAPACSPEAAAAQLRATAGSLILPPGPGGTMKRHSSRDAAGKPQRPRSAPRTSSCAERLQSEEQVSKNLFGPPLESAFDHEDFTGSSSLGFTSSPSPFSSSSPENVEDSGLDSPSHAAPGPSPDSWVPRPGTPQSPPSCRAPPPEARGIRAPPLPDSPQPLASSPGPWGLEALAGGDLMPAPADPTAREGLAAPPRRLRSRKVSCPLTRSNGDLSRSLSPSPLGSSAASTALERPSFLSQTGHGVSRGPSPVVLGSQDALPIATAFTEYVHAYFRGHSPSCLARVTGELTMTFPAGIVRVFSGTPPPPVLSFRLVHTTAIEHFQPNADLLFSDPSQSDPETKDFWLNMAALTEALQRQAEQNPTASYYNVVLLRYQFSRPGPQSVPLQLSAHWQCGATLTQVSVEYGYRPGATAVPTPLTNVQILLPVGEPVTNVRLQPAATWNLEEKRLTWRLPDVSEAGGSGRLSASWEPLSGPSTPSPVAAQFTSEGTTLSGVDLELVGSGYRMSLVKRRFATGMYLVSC
B8: DnaJ homolog subfamily C member 5 (Homo sapiens), Q9H3Z4 (parent)
chain: B1 chain
partner: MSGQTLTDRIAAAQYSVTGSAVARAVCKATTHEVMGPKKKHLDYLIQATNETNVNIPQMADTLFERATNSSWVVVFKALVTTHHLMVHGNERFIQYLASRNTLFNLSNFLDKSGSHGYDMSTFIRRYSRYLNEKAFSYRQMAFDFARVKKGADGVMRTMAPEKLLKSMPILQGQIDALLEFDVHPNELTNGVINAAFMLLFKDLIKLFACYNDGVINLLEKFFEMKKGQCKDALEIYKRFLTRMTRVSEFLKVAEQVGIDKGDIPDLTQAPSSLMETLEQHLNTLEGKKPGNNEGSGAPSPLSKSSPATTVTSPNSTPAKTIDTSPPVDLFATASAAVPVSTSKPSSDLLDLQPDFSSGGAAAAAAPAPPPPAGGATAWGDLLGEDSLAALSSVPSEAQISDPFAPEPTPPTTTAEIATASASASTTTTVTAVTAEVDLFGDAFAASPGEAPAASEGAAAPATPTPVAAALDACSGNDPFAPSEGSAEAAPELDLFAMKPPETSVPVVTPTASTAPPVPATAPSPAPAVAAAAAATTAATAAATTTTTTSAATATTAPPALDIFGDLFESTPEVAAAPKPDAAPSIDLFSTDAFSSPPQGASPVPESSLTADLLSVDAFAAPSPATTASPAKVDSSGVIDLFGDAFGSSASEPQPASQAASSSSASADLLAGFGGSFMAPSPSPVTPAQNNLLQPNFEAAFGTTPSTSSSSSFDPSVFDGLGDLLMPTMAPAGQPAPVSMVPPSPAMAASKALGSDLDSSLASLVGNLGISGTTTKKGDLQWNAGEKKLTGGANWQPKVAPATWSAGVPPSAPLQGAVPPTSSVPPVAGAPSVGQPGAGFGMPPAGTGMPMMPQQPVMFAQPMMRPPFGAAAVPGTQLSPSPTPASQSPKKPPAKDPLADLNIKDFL
B9: DnaJ homolog subfamily C member 5 (Homo sapiens), Q9H3Z4 (parent)
chain: B1 chain
partner: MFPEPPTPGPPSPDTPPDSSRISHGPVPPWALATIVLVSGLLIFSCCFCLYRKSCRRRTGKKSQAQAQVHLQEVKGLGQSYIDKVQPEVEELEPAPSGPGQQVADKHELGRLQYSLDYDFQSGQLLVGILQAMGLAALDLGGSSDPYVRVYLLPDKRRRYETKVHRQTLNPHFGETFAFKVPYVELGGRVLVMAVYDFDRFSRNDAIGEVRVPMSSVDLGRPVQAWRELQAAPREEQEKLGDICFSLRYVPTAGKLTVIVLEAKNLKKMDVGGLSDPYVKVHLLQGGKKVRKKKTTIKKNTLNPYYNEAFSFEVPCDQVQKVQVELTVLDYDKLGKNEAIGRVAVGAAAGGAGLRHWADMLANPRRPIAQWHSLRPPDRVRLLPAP

Variants of: B1
Conditions: with vglu1_human SLC17A7, Q9P2U7

Variant | effect of a mutation on the interaction
L115R | with no effect

Variants of: B2
Conditions: with scam1_human SCAMP1, O15126

Variant | effect of a mutation on the interaction
L115R | with no effect

Variants of: B3
Conditions: with efnb1_human EFNB1, P98172

Variant | effect of a mutation on the interaction
L115R | decreasing interaction strength

Variants of: B4
Conditions: with vacht_human SLC18A3, Q16572

Variant | effect of a mutation on the interaction
L115R | with no effect

Variants of: B5
Conditions: with vglu3_human SLC17A8, Q8NDX2

Variant | effect of a mutation on the interaction
L115R | with no effect

Variants of: B6
Conditions: with numb_human NUMB

Variant | effect of a mutation on the interaction
L115R | with no effect

Variants of: B7
Conditions: with fcho1_human FCHO1, O14526

Variant | effect of a mutation on the interaction
L115R | decreasing interaction strength

Variants of: B8
Conditions: with ap180_human SNAP91, O60641

Variant | effect of a mutation on the interaction
L115R | with no effect

Variants of: B9
Conditions: with syt5_human SYT5, O00445

Variant | effect of a mutation on the interaction
L115R | with no effect
